# How the values were obtained:
# [1] = biological target: T1, human IgE (abcam, Product code ab65866) (human, UniProt P01854-1 1-428); assay: MSD-SET, solution equilibrium titration
# T1 construct: also called antigen human IgE
# Procedure: The solution equilibrium titration (SET) was performed in PBS+0.1% of IgG-free BSAbuffer (PBSF), where the antigen human IgE (purchased from: abcam, Product code: ab65866) was kept constant at 10-100 pM and incubated with 3-fold serial dilutions of humanized antibodies starting from 0.1-100 nM. […] 20 nM of antibodies diluted in PBS were coated onto standard binding MSD-ECL plates (purchased from MSD, Product code: L15XA-3) at 4° C. overnight. The MSD-ECL plates were blocked with 1% of Casein for 30 min while shaking at 700 rpm, and then washed with washing buffer (PBS+0.05% Tween 20) three times. The samples incubated with 2-fold serial dilutions of antigen human IgE and humanized antibodies were added into the MSD-ECL plates, incubated for 150 s while shaking at 700 rpm, and then washed once. […] 1× reading buffer T (purchased from MSD, Product code: R92TC-1) was added to read on an MSD Sector Imager instrument (Model: MESO QuickPlex SQ 120). In a Prism-GraphPad6 software, the percentage of free antigens was plotted as a function of titrated antibodies and fitted into a quadratic equation to extract the KD values.
# [2] = biological target: T2, biotin-labelled human IgE-Fc (human, UniProt P01854 104-427, biotin-labelled); assay: blocking ELISA: inhibition of biotin-labelled human IgE-Fc binding to coated FcεRIα-Fc
# T2 construct: also called recombinant human IgE-Fc protein; Fc region (CH2-4) protein of human IgE
# T2 sequence (P01854 other isoform, or with tags, fused parts or gaps limits assumed): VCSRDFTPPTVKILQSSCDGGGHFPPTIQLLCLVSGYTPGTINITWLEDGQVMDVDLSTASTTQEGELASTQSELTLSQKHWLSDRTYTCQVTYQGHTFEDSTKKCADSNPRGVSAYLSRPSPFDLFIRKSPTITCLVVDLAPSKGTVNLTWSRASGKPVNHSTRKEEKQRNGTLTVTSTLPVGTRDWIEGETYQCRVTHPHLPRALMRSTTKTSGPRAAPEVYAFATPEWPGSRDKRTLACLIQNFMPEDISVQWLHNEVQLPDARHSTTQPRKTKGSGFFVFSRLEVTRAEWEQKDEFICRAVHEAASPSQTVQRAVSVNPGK
# Procedure: (§1) The method specifically included diluting the recombinantly expressed human FcεRIα-Fc protein (with its amino acid sequence as set forth in SEQ ID NO: 51) with PBS to a final concentration of 1 μg/mL, coating the ELISA plates (purchased from Corning, Product code: 42592) at 100 μL per well, and keeping at 4° C. overnight. The next day, the coating solution was discarded. The wells were blocked with 2.5% skimmed milk dissolved in PBS for 1 hour and washed with PBS containing 0.05% Tween-20. […] After discarding the supernatant, the wells were washed with PBS containing 0.05% Tween-20 and detected by using HRP-labelled streptavidin (purchased from Sangon Biotech, Product code: D111054-0001).
# [3] = biological target: T2, biotin-labelled human IgE-Fc; assay: blocking ELISA: FcεRIα-Fc coated, biotin-labelled human IgE-Fc (100 ng/mL) premixed with the antibody, streptavidin-HRP; blocked ligand FcεRIα-Fc
# Procedure: as §1
# [4] = biological target: T2, biotin-labelled human IgE-Fc; assay: blocking ELISA, inhibition ratio: FcεRIα-Fc coated, biotin-labelled human IgE-Fc (100 ng/mL) premixed with the antibody, streptavidin-HRP; blocked ligand FcεRIα-Fc
# Procedure: as §1, with “[…],” for “μg/mL,”, “diluted with” for “detected by using”, “D111054-0001) at 1:1000 for detection. The inhibition ratio of different antibodies at different concentrations was calculated following the formula below: Inhibition ratio at antibody concentration of X (%)=(OD₄₅₀ readout at antibody concentration of 0-OD₄₅₀ readout at antibody concentration of X)/OD₄₅₀ readout at antibody concentration of 0×100.” for “D111054-0001).”
# [5] = biological target: T2, biotin-labelled human IgE-Fc; assay: blocking ELISA: FcεRIα-Fc coated, biotin-labelled human IgE-Fc (1 µg/mL) premixed with the antibody, streptavidin-HRP; blocked ligand FcεRIα-Fc
# Procedure: The next day, the coating solution was discarded. The wells were blocked with 2.5% skimmed milk dissolved in PBS for 1 hour and washed with PBS containing 0.05% Tween-20. […] After discarding the supernatant, the wells were washed with PBS containing 0.05% Tween-20 and diluted with HRP-labelled streptavidin (purchased from Sangon Biotech, Product code: D111054-0001) at 1:1000 for detection.
# T1 sequence (P01854 other isoform, or with tags, fused parts or gaps): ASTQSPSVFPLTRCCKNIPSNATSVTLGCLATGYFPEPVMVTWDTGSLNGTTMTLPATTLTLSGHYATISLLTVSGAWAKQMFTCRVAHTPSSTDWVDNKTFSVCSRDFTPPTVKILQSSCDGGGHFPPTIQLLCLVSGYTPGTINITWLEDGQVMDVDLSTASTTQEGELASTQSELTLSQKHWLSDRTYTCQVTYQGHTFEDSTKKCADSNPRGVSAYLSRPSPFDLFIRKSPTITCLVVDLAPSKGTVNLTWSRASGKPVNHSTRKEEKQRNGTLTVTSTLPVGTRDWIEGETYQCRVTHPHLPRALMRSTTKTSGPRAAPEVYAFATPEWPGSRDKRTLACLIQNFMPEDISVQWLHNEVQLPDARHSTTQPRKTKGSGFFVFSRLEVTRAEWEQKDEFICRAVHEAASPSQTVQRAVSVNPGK
Binder,Kd [1] [nM],IC50 [2],IC50 (read off the curve) [3] [mg/L],IC50 (read off the curve) [4] [mg/L],IC50 (read off the curve) [5] [mg/L]
"Humanized antibody SE2 (antibody, human IgG1, kappa, V domains shown, also called SE2 humanized antibody; humanized SE2) VH: QVQLQESGPGLVKPSQTLSLTCTVSGYSITSDYAWNWIRQPPGNGLEWMGYISYSGSTRYNPSLKSRITISRDTSKNQFSLKLSSVTAADTAVYFCVYGSSQRFFDYWGQGTLVTVSS VL: DILMTQSPDSLAVSLGERATINCKASQDVSIDVAWYQQKPGQPPKLLIYSASFRYAGVPDRFSGSGSGTDFTLTISSLQAEDVAVYYCQQHYSLFTFGSGTKLEIKR",0.0109,~0.417 mg/L,,,
"chimeric antibody SE2 (mouse SE2 variable regions, human IgG1/kappa constant regions) (antibody, V domains shown, also called chimeric recombinant monoclonal antibody) VH: DVQLLESGPGLVKPSQSLSLTCTVTGYSITSDYAWNWIRQFPGNKLEWMGYISYSGSTRYNPSLKSRISISRDTSKNQFFLQLNSVTSEDTATYFCVYGSSQRFFDYWGQGTTLTVSS VL: DILMTQSHKFMSTSIGDRVSITCKASQDVSIDVAWYHQKPGQSPKLLIYSASFRYAGVPDRFTGSGSGTDFTLTISSVQAEDLAVYYCQQHYSLFTFGSGTKLEIKR",,,,~0.2,
"mouse-derived monoclonal antibody SE2 (antibody, V domains shown, the cloning primer was homologous to the mouse IgG1 heavy chain constant region; also called SE2 mouse hybridoma antibody; mouse-derived parent antibody of SE2) VH: DVQLLESGPGLVKPSQSLSLTCTVTGYSITSDYAWNWIRQFPGNKLEWMGYISYSGSTRYNPSLKSRISISRDTSKNQFFLQLNSVTSEDTATYFCVYGSSQRFFDYWGQGTTLTVSS VL: DILMTQSHKFMSTSIGDRVSITCKASQDVSIDVAWYHQKPGQSPKLLIYSASFRYAGVPDRFTGSGSGTDFTLTISSVQAEDLAVYYCQQHYSLFTFGSGTKLEIK",,,,~0.2,~0.3

# Now from value to binder:
Kd [1] [nM],IC50 [2],IC50 (read off the curve) [3] [mg/L],IC50 (read off the curve) [4] [mg/L],IC50 (read off the curve) [5] [mg/L],Binder
0.01,~0.266 nM,~0.06,,,"Humanized antibody SE5 (antibody, human IgG1, kappa, V domains shown, also called SE5 humanized antibody; humanized SE5) VH: QVQLQESGPGLVKPSQTLSLTCTVSGYSITSDYAWNWIRQPPGNGLEWLGYINYSGTTRYNPSLKSRITISRDTSKNQFSLKLSSVTAADTAVYFCVYGSSQRFFDYWGQGTLVTVSS VL: DIVMTQSPDSLAVSLGERATINCKASQDVSIDVAWYQQKPGQPPKLLIYSASWRYAGVPDRFSGSRSGTDYTLTISSLQAEDVAVYYCQQHYNLFTFGSGTKLEIKR"
,,~0.07,~0.08,~0.2,"mouse-derived monoclonal antibody SE5 (antibody, V domains shown, the cloning primer was homologous to the mouse IgG1 heavy chain constant region; also called SE5 mouse hybridoma antibody; mouse-derived parent antibody of SE5) VH: DVQLLESGPGLVKPSQSLSLTCTVTGYSITSDYAWNWIRQFPGNKLEWLGYINYSGTTRYNPSLKSRISISRDTSKNQFFLQLNSVTSEDTATYFCVYGSSQRFFDYWGQGTTLTVSS VL: DIVMTQSHKFMSTSVGDRVSITCKASQDVSIDVAWYQQKPGQSPKLLIYSASWRYAGVPDRFTGSRSGTDYTLTISSVQAEDLAVYYCQQHYNLFTFGSGTKLEIQ"
,,,~0.08,,"chimeric antibody SE5 (mouse SE5 variable regions, human IgG1/kappa constant regions) (antibody, V domains shown, also called chimeric recombinant monoclonal antibody) VH: DVQLLESGPGLVKPSQSLSLTCTVTGYSITSDYAWNWIRQFPGNKLEWLGYINYSGTTRYNPSLKSRISISRDTSKNQFFLQLNSVTSEDTATYFCVYGSSQRFFDYWGQGTTLTVSS VL: DIVMTQSHKFMSTSVGDRVSITCKASQDVSIDVAWYQQKPGQSPKLLIYSASWRYAGVPDRFTGSRSGTDYTLTISSVQAEDLAVYYCQQHYNLFTFGSGTKLEIQR"
